Reference: the supplement of paper PMC10724198
± gives the standard deviation of the averaged measurements.

Columns and labels:
Saccharomyces cerevisiae [1] = experiment: protein stability index of tFT-peptide fusion (C-terminal peptide) (PSI (0-1 scale)); higher = more stable (slower turnover)
Method: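 MPS profiling in S. cerevisiae of the tFT-X12 degron library: putative degron peptides plus stable controls, 12 aa, fused to the C-terminus of a sfGFP-mCherry timer. Cells are FACS-sorted into 8 mCherry/sfGFP bins and deep-sequenced. PSI runs from 0 (unstable) to 1 (stable). Backgrounds are wild type, das1Δ and doa10Δ at 30 °C, and wild type, das1Δ, cdc34-1 and cdc53-1 at 37 °C; 2-3 technical replicates each.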

Saccharomyces cerevisiae [2] = experiment: as above; conditions: genetic background: wild type; temperature: 30 C
[3] = genetic background: cdc34-1, temperature: 37 C
[4] = genetic background: cdc53-1, temperature: 37 C
[5] = genetic background: das1 deletion, temperature: 30 C
[6] = genetic background: das1 deletion, temperature: 37 C
[7] = genetic background: doa10 deletion, temperature: 30 C
[8] = genetic background: wild type, temperature: 30 C
[9] = genetic background: wild type, temperature: 37 C
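Also: PSI is a weighted mean of sequencing reads over stability bins, variants kept only with over 10 reads, mCherry proximal and sfGFP distal, peptide attached via GGGS linker.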

Row | Sequence | protein stability index (Saccharomyces cerevisiae [1]; [3]) | protein stability index (Saccharomyces cerevisiae [1]; [4]) | protein stability index (Saccharomyces cerevisiae [1]; [5]) | protein stability index (Saccharomyces cerevisiae [1]; [6]) | protein stability index (Saccharomyces cerevisiae [1]; [7]) | protein stability index (Saccharomyces cerevisiae [1]; [8]) | protein stability index (Saccharomyces cerevisiae [1]; [9]) | protein stability index (Saccharomyces cerevisiae [2])
1 | SWGEQDRLTGYI | 0.715 ± 0.029 | 0.77 ± 0.02 | 0.689 ± 0.024 | 0.787 ± 0.0083 | 0.669 ± 0.018 | 0.674 ± 0.026 | 0.712 ± 0.023 | 0.7195 ± 0.0031
2 | SWMFKLCIQWNV | 0.5147 ± 0.0019 | 0.567 ± 0.023 | 0.502 ± 0.011 | 0.5321 ± 0.00098 | 0.467 ± 0.029 | 0.456 ± 0.013 | 0.49 ± 0.019 | 0.467 ± 0.012
3 | SWSLRLSTIFSV | 0.609 ± 0.11 | 0.664 ± 0.016 | 0.612 ± 0.025 | 0.667 ± 0.0072 | 0.189 ± 0.0053 | 0.219 ± 0.018 | 0.352 ± 0.022 | 0.367 ± 0.0041
4 | SYFASLLDLFTA | 0.727 ± 0.062 | 0.77 ± 0.0079 | 0.66 ± 0.011 | 0.766 ± 0.018 | 0.669 ± 0.018 | 0.674 ± 0.012 | 0.759 ± 0.021 | 0.598 ± 0.16
5 | TDSSWEVSLMVG | 0.679 ± 0.051 | 0.747 ± 0.036 | 0.612 ± 0.012 | 0.733 ± 0.016 | 0.605 ± 0.023 | 0.6186 ± 0.0039 | 0.741 ± 0.026 | 0.374 ± 0.053
6 | TDVLLLQLLISV | 0.202 ± 0.021 | 0.228 ± 0.059 | 0.225 ± 0.028 | 0.338 ± 0.018 | 0.184 ± 0.007 | 0.219 ± 0.032 | 0.316 ± 0.0075 | 0.311 ± 0.012
7 | TGPLVHLLCCCV | 0.354 ± 0.011 | 0.417 ± 0.011 | 0.313 ± 0.028 | 0.3955 ± 0.0013 | 0.284 ± 0.0075 | 0.315 ± 0.019 | 0.386 ± 0.0074 | 0.421 ± 0.011
8 | TKKGQTRPSRTD | 0.634 ± 0.0078 | 0.6989 ± 0.0024 | 0.642 ± 0.034 | 0.705 ± 0.017 | 0.6444 ± 0.0049 | 0.687 ± 0.029 | 0.696 ± 0.017 | 0.575 ± 0.21
9 | TLKRCFRWCRTT | 0.492 ± 0.095 | 0.71 ± 0.05 | 0.672 ± 0.018 | 0.699 ± 0.0095 | 0.105 ± 0.0068 | 0.11 ± 0.011 | 0.157 ± 0.031 | 0.176 ± 0.0047
10 | TLSRTPVSPSAP | 0.686 ± 0.051 | 0.738 ± 0.017 | 0.637 ± 0.018 | 0.706 ± 0.021 | 0.674 ± 0.032 | 0.6492 ± 0.0015 | 0.696 ± 0.022 | 0.7094 ± 0.0059
11 | TMSGVTRCVLVL | 0.521 ± 0.048 | 0.526 ± 0.04 | 0.385 ± 0.026 | 0.5463 ± 0.0053 | 0.339 ± 0.015 | 0.395 ± 0.02 | 0.5379 ± 0.0049 | 0.423 ± 0.015
12 | TNEWMDVKVFCY | 0.668 ± 0.0073 | 0.701 ± 0.052 | 0.499 ± 0.049 | 0.676 ± 0.0097 | 0.449 ± 0.028 | 0.486 ± 0.04 | 0.6398 ± 0.0051 | 0.491 ± 0.088
13 | TSFSSGEALGVG | 0.437 ± 0.0066 | 0.503 ± 0.021 | 0.442 ± 0.0075 | 0.5 ± 0.0091 | 0.4553 ± 0.0011 | 0.445 ± 0.013 | 0.48763 ± 3.8e-05 | 0.483 ± 0.01
14 | TVHVIVVCRELA | 0.4698 ± 0.0034 | 0.518 ± 0.015 | 0.39 ± 0.03 | 0.52 ± 0.017 | 0.201 ± 0.014 | 0.244 ± 0.025 | 0.381 ± 0.007 | 0.3271 ± 0.0022
15 | TVRLPLILPCVL | 0.5752 ± 0.0049 | 0.573 ± 0.031 | 0.421 ± 0.028 | 0.5669 ± 0.0053 | 0.414 ± 0.0034 | 0.42 ± 0.025 | 0.55 ± 0.013 | 0.4884 ± 0.0042
16 | TVRVWPRNLWFS | 0.519 ± 0.048 | 0.677 ± 0.017 | 0.639 ± 0.021 | 0.7273 ± 0.0018 | 0.111 ± 0.0029 | 0.111 ± 0.021 | 0.235 ± 0.031 | 0.176 ± 0.021
17 | TWGGGRVSLGVG | 0.313 ± 0.029 | 0.3966 ± 0.0028 | 0.326 ± 0.011 | 0.405 ± 0.018 | 0.3442 ± 0.0015 | 0.359 ± 0.044 | 0.401 ± 0.022 | 0.328 ± 0.016

Row | Sequence | protein stability index (Saccharomyces cerevisiae [1]; [3]) | protein stability index (Saccharomyces cerevisiae [1]; [4]) | protein stability index (Saccharomyces cerevisiae [1]; [5]) | protein stability index (Saccharomyces cerevisiae [1]; [6]) | protein stability index (Saccharomyces cerevisiae [1]; [7]) | protein stability index (Saccharomyces cerevisiae [1]; [8]) | protein stability index (Saccharomyces cerevisiae [1]; [9]) | protein stability index (Saccharomyces cerevisiae [2])
18 | TYHRSYLLATVV | 0.49857 ± 0.00019 | 0.55 ± 0.08 | 0.378 ± 0.028 | 0.543 ± 0.016 | 0.181 ± 0.0023 | 0.224 ± 0.024 | 0.331 ± 0.00026 | 0.314 ± 0.025
19 | VACTCILVALVV | 0.059 ± 0.0069 | 0.164 ± 0.02 | 0.0772 ± 0.027 | 0.198 ± 0.0045 | 0.0424 ± 0.0038 | 0.0686 ± 0.035 | 0.165 ± 0.005 | 0.142 ± 0.035
20 | VAFLYCHFFYCI | 0.502 ± 0.063 | 0.531 ± 0.013 | 0.391 ± 0.029 | 0.53095 ± 0.00027 | 0.342 ± 0.0038 | 0.37 ± 0.014 | 0.47 ± 0.009 | 0.415 ± 0.013
21 | VAVFFFCRVFFL | 0.248 ± 0.062 | 0.339 ± 0.005 | 0.221 ± 0.037 | 0.412 ± 0.0042 | 0.186 ± 0.02 | 0.211 ± 0.024 | 0.318 ± 0.04 | 0.289 ± 0.026
22 | VCCYILFFLFPV | 0.401 ± 0.0048 | 0.522 ± 0.008 | 0.349 ± 0.025 | 0.568 ± 0.024 | 0.322 ± 0.0058 | 0.337 ± 0.026 | 0.506 ± 0.018 | 0.418 ± 0.011
23 | VCLRICLVTLMM | 0.3 ± 0.019 | 0.444 ± 0.011 | 0.284 ± 0.032 | 0.4615 ± 0.0026 | 0.2405 ± 0.0017 | 0.261 ± 0.033 | 0.4126 ± 0.0014 | 0.428 ± 0.03
24 | VCPCCPYVMIAG | 0.598 ± 0.061 | 0.641 ± 0.04 | 0.498 ± 0.027 | 0.647 ± 0.0012 | 0.318 ± 0.0013 | 0.336 ± 0.043 | 0.494 ± 0.0062 | 0.489 ± 0.018
25 | VCSCLVLVFCCC | 0.232 ± 0.018 | 0.222 ± 0.018 | 0.232 ± 0.036 | 0.318 ± 0.0068 | 0.207 ± 0.025 | 0.237 ± 0.015 | 0.285 ± 0.024 | 0.298 ± 0.037
26 | VCVARICIWDFL | 0.505 ± 0.043 | 0.589 ± 0.027 | 0.446 ± 0.035 | 0.594 ± 0.014 | 0.413 ± 0.0074 | 0.438 ± 0.013 | 0.596 ± 0.0092 | 0.51 ± 0.033
27 | VCWVYESWKCLA | 0.438 ± 0.038 | 0.571 ± 0.043 | 0.536 ± 0.027 | 0.672 ± 0.0075 | 0.0888 ± 0.014 | 0.103 ± 0.0097 | 0.107 ± 0.013 | 0.168 ± 0.026
28 | VCYLMRSLTFAY | 0.4968 ± 0.0039 | 0.546 ± 0.006 | 0.345 ± 0.029 | 0.494 ± 0.0096 | 0.319 ± 0.021 | 0.337 ± 0.024 | 0.4733 ± 0.0016 | 0.45 ± 0.0099
29 | VECVCVVVVRRM | 0.391 ± 0.0055 | 0.497 ± 0.03 | 0.313 ± 0.023 | 0.493 ± 0.01 | 0.266 ± 0.0088 | 0.31 ± 0.021 | 0.466 ± 0.021 | 0.351 ± 0.017
30 | VFLCVRLGFIFL | 0.419 ± 0.0062 | 0.486 ± 0.0065 | 0.359 ± 0.029 | 0.529 ± 0.012 | 0.404 ± 0.02 | 0.352 ± 0.023 | 0.471 ± 0.023 | 0.446 ± 0.026
31 | VFLLCLGFLVFS | 0.263 ± 0.011 | 0.341 ± 0.046 | 0.258 ± 0.025 | 0.4083 ± 0.0018 | 0.241 ± 0.024 | 0.275 ± 0.02 | 0.3886 ± 0.0038 | 0.336 ± 0.038
32 | VFLRRFGVPWVF | 0.594 ± 0.016 | 0.664 ± 0.019 | 0.493 ± 0.029 | 0.661 ± 0.016 | 0.198 ± 0.0071 | 0.227 ± 0.02 | 0.429 ± 0.0074 | 0.365 ± 0.017
33 | VFLSCFFVSWVV | 0.328 ± 0.019 | 0.403 ± 0.047 | 0.226 ± 0.027 | 0.40329 ± 5.2e-05 | 0.202 ± 0.011 | 0.204 ± 0.015 | 0.369 ± 0.03 | 0.3269 ± 0.0017
